Results taken from publication PMC3897919, “ERAD and protein import defects in a sec61 mutant lacking ER-lumenal loop 7” (BMC Cell Biology, 2013).

Molecular target: T1, Sec61∆L7p (S. cerevisiae, UniProt P32915 1-480, amino acids 305–371 of wildtype Sec61p had been replaced by two amino acids …)
T1 construct: Sec61p, S. cerevisiae, lacking ER-lumenal loop 7 and the lumenal ends of TMDs 7 and 8; also called Sec61ΔL7p; Sec∆L7p; source: yeast KRY461 with sec61ΔL7pRS315 as sole copy of SEC61, in microsomes; solubilized in Triton-X100 or digitonin, or total protein reconstituted into proteoliposomes
T1 sequence (looked up): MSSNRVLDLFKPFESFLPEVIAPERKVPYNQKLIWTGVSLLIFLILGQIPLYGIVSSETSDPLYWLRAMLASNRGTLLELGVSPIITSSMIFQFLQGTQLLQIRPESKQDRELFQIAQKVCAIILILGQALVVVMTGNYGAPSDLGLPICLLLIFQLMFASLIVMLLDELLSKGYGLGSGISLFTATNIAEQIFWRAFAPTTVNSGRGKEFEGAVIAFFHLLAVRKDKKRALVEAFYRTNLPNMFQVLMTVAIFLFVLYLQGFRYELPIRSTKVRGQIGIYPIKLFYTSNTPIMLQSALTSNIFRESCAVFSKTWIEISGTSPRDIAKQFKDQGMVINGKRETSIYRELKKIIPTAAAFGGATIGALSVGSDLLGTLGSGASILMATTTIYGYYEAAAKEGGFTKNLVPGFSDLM
Assay: cross-linking; intact microsomes in B88, pH 7.9, treated with DSS for 20 min at 20°C, quenched with ammonium acetate; SDS-PAGE and immunoblotting with anti-Sec61p or anti-Sss1p antibodies
Settings: partners not purified

fold weaker crosslink than in wildtype membranes: ≥ 5 fold
B1: Sss1p (natural protein, UniProt P35179 1-80, looked up)
chain: MARASEKGEEKKQSNNQVEKLVEAPVEFVREGTQFLAKCKKPDLKEYTKIVKAVGIGFIAVGIIGYAIKLIHIPIRYVIV
notes: Sss1p, small subunit of the trimeric Sec61 complex, yeast; source: endogenous, yeast microsomes
